The target in the series is GST-ELAVL3 (UniProt Q14576 1-367). Put plainly: EMSA; 5 mM Mg2+; RNA-EMSA: 20 mM Tris-HCl (pH not stated), 100 mM NaCl, 5 mM MgCl2, 2 mM DTT, 37 C 1 h, 6% native gel at 4 C; pull-down: 50 pmol probe on beads, cell lysate, 4 C overnight. Conditions: protein: recombinant; tags: N-terminal GST (pGEX-4T-1); label: 3'-biotin.

Here are results for two molecules from publication PMC10684895, “The ELAVL3/MYCN positive feedback loop provides a therapeutic target for neuroendocrine prostate cancer”.

Sequence of GST-ELAVL3 (Q14576 whole entry): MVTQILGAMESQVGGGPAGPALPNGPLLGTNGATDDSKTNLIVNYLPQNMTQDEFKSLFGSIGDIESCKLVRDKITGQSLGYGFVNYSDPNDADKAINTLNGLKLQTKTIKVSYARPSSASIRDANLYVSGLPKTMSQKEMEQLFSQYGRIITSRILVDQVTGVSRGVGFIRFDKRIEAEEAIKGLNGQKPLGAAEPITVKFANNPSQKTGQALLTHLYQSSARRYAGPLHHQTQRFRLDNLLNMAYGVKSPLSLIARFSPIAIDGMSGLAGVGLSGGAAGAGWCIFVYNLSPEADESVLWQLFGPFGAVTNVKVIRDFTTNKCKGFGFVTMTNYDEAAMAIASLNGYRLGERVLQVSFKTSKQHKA

With CACUCUGCACAUCCUGAUCUCUCUCUCAGA (ssRNA) [MYCN-3'UTR-F1-MUT], the binding result is listed as “no binding”.
As to UCCAUCCUAGACACUACCUCAGUCGACGUA (ssRNA) [RICTOR-3'UTR-F3-MUT], the binding result is reported as “no binding”.
